Our source for the activity (relative to parent), activity and indel ratio to WT (indel ratio to WT) values is patent US20260226440.

Holding throughout (test): cell_activity
Series [1] has as its system T1, Type V CRISPR nuclease (8218).
T1 sequence: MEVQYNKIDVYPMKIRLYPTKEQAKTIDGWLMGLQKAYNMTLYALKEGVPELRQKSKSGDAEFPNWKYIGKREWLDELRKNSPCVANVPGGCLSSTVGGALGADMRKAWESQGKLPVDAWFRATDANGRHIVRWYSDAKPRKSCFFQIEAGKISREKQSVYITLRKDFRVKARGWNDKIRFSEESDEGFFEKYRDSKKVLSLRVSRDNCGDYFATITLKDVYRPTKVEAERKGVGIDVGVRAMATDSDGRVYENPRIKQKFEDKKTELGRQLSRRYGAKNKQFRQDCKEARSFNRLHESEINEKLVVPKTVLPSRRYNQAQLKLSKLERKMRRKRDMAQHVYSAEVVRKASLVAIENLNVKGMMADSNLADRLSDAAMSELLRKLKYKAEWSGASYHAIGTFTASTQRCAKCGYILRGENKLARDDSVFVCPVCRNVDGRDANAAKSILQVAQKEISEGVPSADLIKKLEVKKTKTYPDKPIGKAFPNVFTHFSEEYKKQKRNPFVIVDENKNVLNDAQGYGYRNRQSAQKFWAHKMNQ
The settings on record: indels in HEK293T; PAM 5'-TTTC-3'; reference.

Series [2] concerns Type V nuclease-mutMMLV RT fusion. The settings on record: HEK293T.
The subject of series [3] is nuclease-RT fusion A138R A138R (numbering of SEQ ID NO: 1). The settings on record: HEK293T; PAM TTTC; average ratio, EMX1 and VEGFA tested; RT editing ratio 1.266.
In series [4] the target is nuclease-RT fusion D125G D125G (numbering of SEQ ID NO: 1) (UniProt P03355). The settings on record: HEK293T; PAM TTTC; average ratio, EMX1 and VEGFA tested; RT editing ratio 1.436.
For series [5], the target named is nuclease-RT fusion D137G D137G (numbering of SEQ ID NO: 1) (UniProt P03355). The note with it: HEK293T; PAM TTTC; average ratio, EMX1 and VEGFA tested; RT editing ratio 1.665.
The test system of series [6] is nuclease-RT fusion D137R D137R (numbering of SEQ ID NO: 1). The settings on record: HEK293T; PAM TTTC; average ratio, EMX1 and VEGFA tested; RT editing ratio 1.392.
The target of series [7] is nuclease-RT fusion D237G D237G (numbering of SEQ ID NO: 1) (UniProt P03355). The settings on record: HEK293T; PAM TTTC; loss of activity; average ratio, EMX1 and VEGFA tested; RT editing ratio 0.038.
Series [8] relates to nuclease-RT fusion E328R E328R (numbering of SEQ ID NO: 1). The settings on record: HEK293T; PAM TTTC; loss of activity; average ratio, EMX1 and VEGFA tested; RT editing ratio 0.173.
For series [9], the target named is nuclease-RT fusion N127R N127R (numbering of SEQ ID NO: 1) (UniProt P03355). The note with it: HEK293T; PAM TTTC; average ratio, EMX1 and VEGFA tested; RT editing ratio 1.507.
Series [10] concerns nuclease-RT fusion R250G R250G (numbering of SEQ ID NO: 1). The settings on record: HEK293T; PAM TTTC; loss of activity; average ratio, EMX1 and VEGFA tested; RT editing ratio 0.022.
The target in series [11] is nuclease-RT fusion S136G S136G (numbering of SEQ ID NO: 1) (UniProt P03355). The settings on record: HEK293T; PAM TTTC; average ratio, EMX1 and VEGFA tested; RT editing ratio 1.907.
Series [12] has as its target nuclease-RT fusion S205G S205G (numbering of SEQ ID NO: 1) (UniProt P03355). The settings on record: HEK293T; PAM TTTC; average ratio, EMX1 and VEGFA tested; RT editing ratio 1.654.

Consider “GUGAGGUGCAGCCACGAGGUGCGAAUAGGAAGUACGCAGCAAUGUGCUGAAUCGUUCGCACGAAAAUUGGCAUUUUUGAAAACCAAAGCCAAUAAUCAUAUCCAUAAAUAUGUGUGGUUAUGAACUGCAAGUGUUGCCCUCAUAACUUAUC / TGTTGCCCTCATAACTTATC / GATAAGTTATGAGGGCAACA [parent sgRNA EMX1 ; EMX1 target]”, for which the activity (relative to parent) in series [1] worked out at 1.
As for “CACCGCCGUCAUCAACAUUGCCUUUCUGUUGCCCAGUAAACUUAUCAUACGGAGCCAGGCUAUAUAAUUAGCUACUUCUCGUGAGGUGCAGCCACGAGGUGCGAAAGUACGCCGCAAUGUGCGGAAUUCGCACGAAAGUUGGCGGAUUUCUUCGGAAAUCGAGCCAAUAACCAUCUCCAUAAAUAUGUGUGGUGAUGGACUGCAAGUGUUGCCCUCAUAACUUAUCUUUUUUGCG / TGTTGCCCTCATAACTTATC / GATAAGTTATGAGGGCAACA”, the activity in [2] (PAM TTTC, precise editing 0.249%) is 14.6 % indel.
Regarding “CACCGUGUCAGGCCUGCUAGUCAGCCACAGUUUGGGGAAAGCUGUGCAGCCUGUAACCCCCCCAGGAGAAGCUGGGAAAAACCGUCAUCAACAUUGCCUUUCUGUUGCCCAGUAAACUUAUCAUACGGAGCCAGGCUAUAUAAUUAGCUACUUCUCCGUGAGGUGCAGCCACGAGGUGCGAAAGUACGCCGCAAUGUGCGGAAUUCGCACGAAAGUUGGCGGAUUUCUUCGGAAAUCGAGCCAAUAAGCAUAUCCAUAUUAUCUGCGGAUGGAUGUGCACUGCAAGUGUUGCCCUCAUAACUUAUCUUUUUUGCG / TGTTGCCCTCATAACTTATC / GATAAGTTATGAGGGCAACA [sgRNA_C16_xrRNA_EMX1_TTTC editing template RNA ; EMX1 target]”, the activity in [2] (PAM TTTC, precise editing 1.678%) is 10.7 % indel.
As to “UGUCAGGCCUGCUAGUCAGCCACAGUUUGGGGAAAGCUGUGCAGCCUGUAACCCCCCCAGGAGAAGCUGGGAAAAACCGUCAUCAACAUUGCCUUUCUGUUGCCCAGUAAACUUAUCAUACGGAGCCAGGCUAUAUAAUUAGCUACUUCUCCGUGAGGUGCAGCCACGAGGUGCGAAAGUACGCAGCAAUGUGCUGAAUUCGCACGAAAGUUGGCGGAUUUCUUCGGAAAUCGAGCCAAUAAUCAUAUCCAUAUUAUCUGCGGAUGGAUGUGAACUGCAAGUGUUGCCCUCAUAACUUAUC / TGTTGCCCTCATAACTTATC / GATAAGTTATGAGGGCAACA [Table 7 editing template RNA 1 (EMX1) ; EMX1 target]”, the indel ratio to WT (indel ratio to WT) in [3] was determined as 2.77; in series [4] it was 2.83; in [5], 2.8; in series [6] it was 2.13; in series [7], 0.00343; in series [8], 0.0299. In addition, the indel ratio to WT (indel ratio to WT) in series [9] came to 2.7; in [10], 0.00013; in series [11], 3.18; in series [12] it was 2.53.
Take “CACCGUGUCAGGCCUGCUAGUCAGCCACAGUUUGGGGAAAGCUGUGCAGCCUGUAACCCCCCCAGGAGAAGCUGGGAAAAAUGAGGAUGUAGUCACGGAUUCAUUAUCAGGUUCUGGCUGCAGGGUGCCUGAUCUGUGCCAGGGUUAAGCAUGCUGGUGAGGUGCAGCCACGAGGUGCGAAAGUACGCCGCAAUGUGCGGAAUUCGCACGAAAGUUGGCGGAUUUCUUCGGAAAUCGAGCCAAUAACCAUCUCCAUAAAUAUGUGUGGUGAUGGACUGCAAGAUUAUCAGCAAGUGGCUGCAUUUUUUGCG / ATTATCAGCAAGTGGCTGCA / TGCAGCCACTTGCTGATAAT”: the activity in [2] (PAM ATTC (inferred from RTT), precise editing 1.993%) stood at 7.64 % indel.
